Data reported in patent US20100151486A1, “OSTEOPONTIN FUNCTIONAL EPITOPES, MONOCLONAL ANTIBODIES AGAINST THE EPITOPES AND USES THEREOF” (SHANGHAI NATIONAL ENGINEERING RESEARCH CENTER OF A, priority 2007, published 2010).
Entries after “also recorded” stand apart in the source; their conditions may differ.

Legend:
MDA-MB-435s cells = test: Spontaneous lung metastasis in nude mice (MDA-MB-435s); assay type: in vivo; details: 5 mg/kg, 2 times per week; histological sections
Method: The MDA-MB-435s cells were detached and re-suspended in serum-free DMEM to the concentration of 5×10^7 cells/ml. Each group of 10 female 4 to 6-week old nude mice were anaesthetized by injection of sodium pentobarbital (ip.). Under sterile condition, the skin was sterilized, and a small incision (0.5-mm) was made in the skin over the lateral thorax below the right limb. The mammary fat pads (mfp) were exposed and MDA-MB-435s cells (5×10^6 in 100 μl DMEM) were orthotopically injected into the mfps. The cut was then closed. The animals were randomly divided into four groups, and each accepted the treatment as specified below from the day after the tumor cell inoculation:
1A12: 5 mg/kg, 2 times per week;
Control antibody: 5 mg/kg, 2 times per week.
The tumor formation in nude mice was observed once a week, the maxima of the diameter (length) and a perpendicular dimension of the tumor (width) were measured using a caliper, and the volume was calculated as follows: Volume=0.52×length×width^2. The changed tumor volumes were plotted versus the time into a tumor growth curve.
The mice were sacrificed by cervical dislocation at the end of the 10th week after inoculation. For each group, tumor tissues were isolated, fixed with 10% neutral formalin and embedded in paraffin, and the tumor tissue and lung tissue were stained with H & E for analysis. […]

[1] = system: chicken embryo chorioallantoic membrane (CAM); test: Chicken embryo chorioallantoic membrane (CAM) angiogenesis assay; assay type: in vivo; details: human OPN 250 ng + antibody 1 μg; P<0.01
Method: The Leghorn chicken embryos were purchased from the farm with a fertilization rate of >90%. The 8-day old chicken embryos were selected. After sterilization, a small hole was drilled in the center of the top air chamber of the embryo with a lancet, the surrounding shell with the inner membrane was removed with caution to create an opening of 1 cm×1 cm. Then the following analytes/gelatin sponge were added to the CAM surface: i) PBS; ii) HOPN; iii) human OPN (250 ng); iv) human OPN (250 ng)+the irrelevant antibody as control (1 μg); v) human OPN (250 ng)+the murine anti-OPN antibody 1A12 (1 μg); vi) human OPN (250 ng)+the murine-human chimeric anti-OPN antibody c1A12 (1 μg); vii) human OPN (250 ng)+the humanized anti-OPN antibody h1A1.2 (1 μg).
The analytes/gelatin sponge were added to the CAM surface, which was far away from the already-formed dense vascular network. […] The number of vessels within an area edging 2 mm from the edges of the carrier slide was counted under a dissecting microscope to study the angiogenesis using the “vascular index” (Ribatti, D., B. Nico, A. Vacca et al., The gelatin sponge-chorioallantoic membrane assay. Nat Protoc, 2006, 1 (1): 85-91). The number of vessel was counted at the same magnification under the dissecting microscope. The result in each sample group was expressed as “mean±standard deviation (x±S)”. […]

B1: 1A12: murine anti-hOPN mAb; VH SEQ ID NO: 4, VL SEQ ID NO: 6; from hybridoma 1A12 (antibody, V domains shown)
VH: QVQLEQSGPELVKPGASVKMSCKSSGYTFTTYVMHWVKQKPGQGLEWIGYINPYNDGSKYNEKFKGKATLTSDKSSNTAYMELSSLTSEDSAVYYCASHYGGSPAYWGQGTLVTVSA
VL: DILMTQTPLSLPVSLGDQASISCRSSQSLVHSNGNTYLHWYLQKPGQSPKLLIYKVSNRFSGVPDRFSGSGSGTDFTLKISRVEAEDLGVYFCSQSTHVPWTFGGGTKLEIKR
modifications: amino acid sequence of the heavy chain variable region in 1A12; amino acid sequence of the light chain variable region in 1A12
notes: murine anti-hOPN mAb; from hybridoma 1A12
MDA-MB-435s cells
  number of the metastasis in lung: reduced; also recorded: block tumor metastasis
  size of the metastasis in lung: reduced
[1]
  inhibition of OPN-induced angiogenesis in CAM: significantly inhibit
